Measurements as given in the supplement of paper PMC12764529.
± gives the half width of the 95% confidence interval.

Experiments:
[1] = folding stability dG unfold from trypsin proteolysis; higher = more stable
Summary of the method: (§1)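 Only designs with AlphaFold2 dimer inter-PAE above 15 were retained; each was a mini-protein under 80 residues with no cysteine, in a PA-tagged cDNA display construct. After digestion with trypsin and chymotrypsin and sequencing, K50 was inferred by Bayesian fitting of counts, and unfolding free energy was derived per protease or combined against a sequence-predicted unfolded-state K50 and a shared folded-state K50.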

[2] = folding stability dG unfold from chymotrypsin proteolysis; higher = more stable
Summary of the method: as §1

[3] = folding stability dG unfold (combined trypsin and chymotrypsin); higher = more stable
Summary of the method: as §1

Sequence	folding stability dG unfold [1]	folding stability dG unfold [2]	folding stability dG unfold [3]
SASSFPPGSTATLTVRVTDPAGTATTTLTIPLSVDPSTGKAVSLEEVYEILKELGVDPANVTITSLTVSSAG [r14_93_JUSTAS]	3.07 ± 0.088 kcal/mol	3.143 ± 0.024 kcal/mol	3.07 ± 0.08 kcal/mol
SAGGKPLTVEDAKELAESLAKPLKEELGLGNVKILAAPVEVGGEEGKPAEVRIGFLFDLSEDGEFVGSAGGS [r16_751_TrMRF]	-0.405 ± 0.31 kcal/mol	0.0162 ± 0.16 kcal/mol	-0.112 ± 0.23 kcal/mol
SAGGGIEREVAPDEVVEIPIVRIEGDVAREETIEIRLPAGARIEPSGDKIRLWFPEEGKVLEIPLTELSAGG [r13_275_TrMRF]	-0.0241 ± 0.065 kcal/mol	-0.079 ± 0.059 kcal/mol	-0.0226 ± 0.096 kcal/mol
SAGGSAGGSAGWLMIMFPIPPNADNVRIKWPDGPTQEHEMEPGSPVMIMIPPGNIKIEVDSAGGSAGGSAGG [r11_52_TrROS]	1.13 ± 0.054 kcal/mol	1.24 ± 0.091 kcal/mol	1.21 ± 0.1 kcal/mol
SGKDTLILELVLEVDSEEQAQAIRDIFEALGYKVEVRVFPLPDGLIVFVRVEVPVPPPPPSLEDPELLAKSA [r9_863_TrMRF]	1.92 ± 0.092 kcal/mol	2.75 ± 0.028 kcal/mol	2.57 ± 0.15 kcal/mol
SAGGSAGGSAMTLEEKALESEELKKKIEEAPPSTKLITFELPGGEKITFTKNPDGSVVLSPSAGGSAGGSAG [r3_124_JUSTAS]	0.941 ± 0.051 kcal/mol	1.41 ± 0.1 kcal/mol	1.2 ± 0.11 kcal/mol
SAGGEKIKEALEKVPGLEIVKVEKKDGKVYIHIKAKSEEQRKKAAEALKKLPGIKEVKIEVIPEEELSAGGS [r16_671_TrROS_Hall]	3.28 ± 0.15 kcal/mol	2.88 ± 0.064 kcal/mol	3.03 ± 0.21 kcal/mol
SAGGMTEELEITTPDNYKIKITKTLNPNTTKPTYTVKIYEKKSGKVLLEKEFSSLEEAEEFIKNGYGSAGGS [r8_450_TrMRF]	4.73 ± 0.18 kcal/mol	4.596 ± 0.042 kcal/mol	4.65 ± 0.069 kcal/mol
SAGKTIVLPPEMTKEQIEALAKELAEEEGFEKVELVEYDEEKGVFTVKVKVDGKEKTIEIKIVSPEELESAG [r5_912_TrROS_Hall]	1.62 ± 0.046 kcal/mol	2.622 ± 0.022 kcal/mol	2.3 ± 0.084 kcal/mol
SAGGSAGGSAGMKVTVTITYPGGKVTTLDGDPEEVKAALPSSLTDVKITVTDPATGKVAASAGGSAGGSAGG [r11_353_JUSTAS]	-0.213 ± 0.06 kcal/mol	0.838 ± 0.032 kcal/mol	0.635 ± 0.12 kcal/mol
SAGGSAGGSAGGSKKTIKVRIKIEVDGKTYEITVELPEEGMSLEELLKKFPNAKITEIESAGGSAGGSAGGS [r4_278_TrROS_Hall]	3.15 ± 0.26 kcal/mol	3.08 ± 0.17 kcal/mol	3.22 ± 0.23 kcal/mol
SAGGSAGGSAGGPANLNDEPVLLIPVSSELLKLIPAEKLVELAAKLASPNVKRIYVLAPESAGGSAGGSAGG [r7_487_TrMRF]	0.12 ± 0.11 kcal/mol	0.58 ± 0.13 kcal/mol	0.424 ± 0.088 kcal/mol
SAGGSAETITVMIPPNFLKKLKDQGIKIPPGYPWITITVTYNPDGKIKIKVQIQPMPPVSPEDMKKSAGGSA [r15_322_TrROS]	1.44 ± 0.091 kcal/mol	2.72 ± 0.3 kcal/mol	2.29 ± 0.34 kcal/mol
SMVLARIKVRVRDPVTGEELDVEIDLLAPVEVAEEAAEEFRKLFPGLEVEVDLVEVVPLPPVTPEQLAKESA [r9_421_TrMRF]	1.82 ± 0.046 kcal/mol	2.823 ± 0.017 kcal/mol	2.48 ± 0.083 kcal/mol
SAGMELELELEFRLEDGLEVRIRVKVRFDPETGELVIEEVRIEVRPLPPPPPLVLTDEELEALGLEPEESAG [r5_393_TrROS_Hall]	3.6 ± 0.23 kcal/mol	3.32 ± 0.13 kcal/mol	3.6 ± 0.16 kcal/mol
SAGGMKKGQKVTITIEKNEDGTLRITVKVDGKEFVFEFPKDMSLEELLKKAEEAAKKLNLPVEIEPVSAGGS [r16_446_TrROS_Hall]	1.29 ± 0.069 kcal/mol	2.65 ± 0.15 kcal/mol	2.3 ± 0.25 kcal/mol

Sequence	folding stability dG unfold [1]	folding stability dG unfold [2]	folding stability dG unfold [3]
SAGGSAGGSAGGSDVKIEVERGPNGYYTVTIELNGKPKIIPFPPGRPPEDAKDEIKDLLSAGGSAGGSAGGS [r4_7_TrROS]	0.554 ± 0.058 kcal/mol	-0.279 ± 0.13 kcal/mol	0.335 ± 0.12 kcal/mol
SAGGSAGPLERKVIVRTAPYTSPEEGEAYAEETKLAIASKLPESEKVTVEVTWDPETNTVTATIVSSAGGSA [r15_981_JUSTAS]	-0.491 ± 0.28 kcal/mol	1.14 ± 0.092 kcal/mol	0.722 ± 0.16 kcal/mol
SAGGSAMIKTSYDPNGKTIYTIPETGAVITVDPSTGKVTVEVDPESQANNPLPEEEVKKLAEEVLKSAGGSA [r15_735_JUSTAS]	0.481 ± 0.049 kcal/mol	1.34 ± 0.018 kcal/mol	1.1 ± 0.043 kcal/mol
SAGGMTPVPVKLLSEESSSVSTLPNGETVTTTPSLAYSPLGFYVLTTTTTYPATPVTTTTSTVVPLSVSAGG [r19_320_JUSTAS]	0.458 ± 0.041 kcal/mol	-0.151 ± 0.22 kcal/mol	0.223 ± 0.16 kcal/mol
SAGGSAGGSEMEVKVTVEPAPAGAPPGAVVRVEVEFEDGFRITVRFTFVDGKLRAEVTEIKPVSAGGSAGGS [r12_1049_TrROS_Hall]	2.92 ± 0.085 kcal/mol	3.65 ± 0.061 kcal/mol	3.37 ± 0.1 kcal/mol
SAGGSAGGSAGSMTLLATETFPETGKTVKYYKEGDTIYRVDYSDPKNPVVTELSPSDPLKSAGGSAGGSAGG [r17_145_JUSTAS]	1.68 ± 0.09 kcal/mol	2.29 ± 0.054 kcal/mol	2.12 ± 0.086 kcal/mol
SAGGMEEIVKALPPEAGVVEIESEPLPLEDSILRRYRLRVYNPATGKWEELEVLIEYDKDGNIRRIVASAGG [r13_358_TrMRF]	2.5 ± 0.043 kcal/mol	3.94 ± 0.051 kcal/mol	3.6 ± 0.2 kcal/mol
SAGGGSAWKVTAENLPADGYVKFPDGTTVPPGTELTVPLSAGYTDIRALDPEGNVVSVELVPLPEPKLSAGG [r13_441_JUSTAS]	-0.15 ± 0.14 kcal/mol	-0.274 ± 0.29 kcal/mol	-0.187 ± 0.18 kcal/mol
SAGGSAGGSAGGIKPGEKPVYKVKIYNEETGEELEVEFKTLEELEKLKIPGVKKIEVEKVSAGGSAGGSAGG [r7_793_TrROS_Hall]	0.786 ± 0.16 kcal/mol	1.35 ± 0.045 kcal/mol	1.2 ± 0.2 kcal/mol
SAGGIWIPVPNADWAVDFIIEFIDQFGPGAKIDKITVYNGGKEREITPGEPPKIPPGSWFEIDLEPKSAGGS [r16_267_TrROS]	0.698 ± 0.037 kcal/mol	1.15 ± 0.085 kcal/mol	0.984 ± 0.075 kcal/mol
SAGGSDYYIRVRIRIYKPTPEDMQEGKPIPEVEIWFPFDSVEEIKEFLENLPPNIKVDVDWFPPEDSAGGSA [r2_25_TrROS]	3.35 ± 0.073 kcal/mol	4.21 ± 0.11 kcal/mol	3.89 ± 0.14 kcal/mol
SSLEIPPEVLAEIKKAALEGDDEKVKELLKELGFTKVEIKYEKLDGKVKLTIKVEHPEGPATITFSDELLSA [r9_783_JUSTAS]	3.36 ± 0.18 kcal/mol	4.15 ± 0.15 kcal/mol	4.23 ± 0.28 kcal/mol
SAGGSAGGSGSMLPITTVTPTPDGVWKITYELPDGSTRTITVPPDDLSLSGPPSSSGSSAALASAGGSAGGS [r20_194_JUSTAS]	1.28 ± 0.091 kcal/mol	0.041 ± 0.31 kcal/mol	0.764 ± 0.15 kcal/mol
SAGGSAGGSKTIKIEIEKMSEEELKNLTAEEIAKLLGVKEVKVTKEKIEITLTEEELKKLEKKSAGGSAGGS [r12_178_TrROS_Hall]	0.257 ± 0.099 kcal/mol	1.24 ± 0.022 kcal/mol	0.856 ± 0.14 kcal/mol
SAGGSAGGSAKKVKIEEKDGELTITVEPGEKVLIVYPDGTVEEVEVKEGDTITLPPGAKVLPSAGGSAGGSA [r18_452_TrROS_Hall]	0.513 ± 0.11 kcal/mol	1.63 ± 0.12 kcal/mol	1.33 ± 0.24 kcal/mol
